Experimental findings from doi:10.1101/2024.01.24.576984 (bioRxiv, 2024) are described below.

In the first assay the target is hsINTS13(1-256Δ27-48) (human, UniProt Q9NVM9 1-256, Δ27-48). The experiment in a line: crystal structure.
As to EDRLERLQEILRKFLYLEREFRQITIS [hsZNF655(93-119)], the binding result is given as “binds”.

In a further assay the target is 2S-hsINTS13-hsINTS14 (human, UniProt Q9NVM9;Q96SY0). The experiment in a line: fluorescence polarisation. Background: Polarisation of emitted light reports the rotation of a fluorescent probe.
The Kd is the free concentration of one partner at which half of the binding sites on the other are occupied at equilibrium, for simple one-to-one binding. Regarding EGSSDEEGKLVIDEPAK [GFP-hsHDGF (130-146)], the Kd was 5850 nM. DTGSETDEEDKLHIAEDD [GFP-hsZEB2 (33-50)] showed a dissociation constant (Kd) greater than 10000 nM.

As to DEWDIGVGNLIIDLDAD [GFP-hsZNF609 (25-41)], the Kd is 573 nM. Molecule EGEEDEEGKLVIDEPAK [GFP-hsHDGF S2E (130-146)] showed an equilibrium dissociation constant (Kd) of 2630 nM. YDSDGDKSDDLVVDVSNE [GFP-hsTLE3 (238-255)] showed a Kd greater than 10000 nM. For the molecule DDWEIGVGNLIIDLDAD [GFP-hsZNF608 (24-40)], the Kd was found to be 633 nM. Molecule EDRLERLQEILRKFLYLEREFRQITIS [GFP-hsZNF655 (93-119)] returned a Kd of 17.6 nM.
